Data as given in US20120045393A1 (priority 2009, published 2012).
Read-outs that look alike come from different tables or passages of the source. Blank lines part the entries; values can stand above or below the molecule they belong to. Non-standard residues stand in square brackets, D forms with d. Residues, ends and D or L forms follow the SMILES beside them. Primed or numbered codes have the meaning given here. *: point of attachment. DO3A10CM″ = chelating group at the N-terminus (X in the sequence tables); X1 = NC(=O)NNC(=O)[C@@H]1CCCN1C[C@H](Cc1ccc(C(=O)c2ccccc2)cc1)N*; DOTA = O=C(O)CN1CCN(CC(=O)O)CCN(CC(=O)*)CCN(CC(=O)O)CC1; Bpa = N[C@@H](Cc1ccc(C(=O)c2ccccc2)cc1)C(=O)O; d1Nal = N[C@H](Cc1cccc2ccccc12)C(=O)O; d2Nal = N[C@H](Cc1ccc2ccccc2c1)C(=O)O; His(1-Me) = 1-methylhistidine; DO3A10CM = not defined here; Bpa4 = non-natural residue; Amfe4 = not defined here; Hpgly = not defined here; azaGly = NNC(=O)O; Sar = CNCC(=O)O

Assays:
[1] = In vitro metabolic stability in mouse liver homogenate at 37° C.; format: in vitro ADME; conditions: for remaining at 1 h, 0.3 mg/mL: female, Tac:NCr:Foxn1nu/nu, mouse, tissue homogenate, pH 7.2
Procedure: Livers from 10 female Tac:NCr:Foxn1^nu/nu mice were excised, rinsed with ice cold PBS (no Ca^++ or Mg^++) and weighed. The tissues were minced with scissors in Petri dishes on ice with Tris buffered saline (Pierce BupH™ Tris buffered saline packs, #28376; 25 mM Tris, 150 mM NaCl, pH 7.2). After mincing, the tissues were dounce homogenized, and the total volume adjusted with ice cold Tris buffer (4 mL for every gram of excised tissue). The homogenate was centrifuged at ˜4000×g for 10 min at 4° C. The supernatants were aliquoted into Eppendorf tubes on ice (200 and 100 μl volumes) and stored at −80° C. Kidney homogenates were similarly prepared. […] The mixture was centrifuged at 4° C. for 20 min at 20,000×g to precipitate the protein; 10 μL (˜7.6 μCi) of the supernatant was injected into the HPLC for the analysis. […] Peaks at these retention times were also observed in the in vivo plasma sample (FIG. 1). […] After 0 and 60 min, the sample was removed from the incubator, immediately cooled on ice and 2 μL of 10 mM EDTA and 0.2 mL of ice-cooled MeOH were added, mixing after each addition. The proteins in the sample were separated by centrifugation at 14,000 rpm for 20 min. The supernatant was harvested and, in the samples spiked with the ^177Lu-analog, the radioactivity was measured using a Capintec dose calibrator to determine recovery. The sample was then analyzed by HPLC. […] After 0 and 60 min, the sample was removed from the incubator, immediately cooled on ice and 2 μL of 10 mM EDTA and 0.24 mL of ice-cooled methanol was added, mixing after each addition. The proteins in the sample were separated by centrifugation at 14,000 rpm for 20 min. The supernatant was collected and analyzed by LC/MS as described earlier herein.

[2] = tested on: LHRH binding sites on human ovarian cancer cells (EFO-27);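 note: Cell-associated radioactivity on confluent EFO-27 monolayers in 96-well plates, measured by microplate scintillation counting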
Procedure: The EFO27 human ovarian cancer cells were obtained from the American Type Culture Collection and cultured in growth medium, RPMI 1640 (Cellgro) supplemented with 10% fetal bovine serum. The cultures were maintained in a humidified atmosphere containing 5% CO2/95% air at 37° C. and passaged and harvested routinely using 0.05% trypsin/EDTA.
LHRH compounds were screened in a standard cell-based plate assay for their ability to compete with the radio-iodinated LHRH, [Darg^6, ^125I-Tyr^8,azaGly^10-LHRH-II] ([^125I-Tyr^8]BRU-2477) for binding to cancer cells. […] Briefly, EFO-27 cells were cultured and seeded in 96-well clear flat bottom plates at 30,000/well density in growth medium and were used for the assay at 100% confluence the following day, after a wash with chilled phosphate-buffered saline pH 7.4 (PBS). The binding assay was carried out by incubating cells with [^125I-Tyr^8]BRU-2477 in the absence or presence of varying concentrations of test compounds for 90 min at −10° C. All compounds were diluted in phosphate buffered saline (VWR CAT#45000-434) supplemented with 20 mM HEPES, 0.1% BSA, 0.5 mM PMSF (AEBSF), bacitracin (100 mg/L), pH 7.4. At the end of incubation, cells were washed with PBS and the radioactivity associated with each well was read using a Microplate Scintillation counter. [^125I-Tyr^8]BRU-2477 was custom made by GE Healthcare (Woburn, Mass.) and supplied as freeze-dried powder with a radiochemical purity (RCP) of >95% and specific activity of 2000 Ci/mmol.

[3] = target: LHRH receptor (LHRH binding sites) on EFO-27 human ovarian cancer cells (human); experiment: competition with [125I-Tyr8]BRU-2477 for binding to EFO-27 cells
[4] = target: LHRH binding sites on EFO-27 human ovarian cancer cells (human); experiment: competition with [125I-Tyr8]BRU-2477 on EFO-27 cells
[5] = target: LHRH receptor (LHRH binding sites) on EFO-27 human ovarian cancer cells (human); experiment: competition with [125I-Tyr8]BRU-2477, EFO-27 cells
[6] = target: LHRH receptor (LHRH binding sites) on EFO-27 human ovarian cancer cells (human); experiment: competition with [125I-Tyr8]BRU-2477 for binding to EFO-27 cells; remark: listed apart in the source
[7] = Table 19: analogs used in the stabilization studies

Molecule: N=C(N)NCCC[C@@H](NC(=O)[C@H](Cc1c[nH]cn1)NC(=O)[C@H](CO)NC(=O)[C@H](Cc1c[nH]c2ccccc12)NC(=O)[C@H](Cc1c[nH]cn1)NC(=O)[C@@H]1CCC(=O)N1)C(=O)N[C@@H](Cc1c[nH]c2ccccc12)C(=O)N[C@@H](Cc1ccc(O)cc1)C(=O)N1CCC[C@H]1C(=O)NNC(N)=O [BRU-2477, pGlu-His-Trp-Ser-His-Darg-Trp-Tyr-Pro-azaGly-NH2, reference compound] (HELM PEPTIDE1{[Glp].H.W.S.H.[dR].W.Y.P.[O=C(NN[*:1])[*:2]].[am]}$$$$V2.0)
remaining at 1 h, 0.3 mg/mL [1]: 11.9 ± 2.4% | EC50 ([2]; EFO-27 cells, competition with [125I-Tyr8]BRU-2477, 90 min): 740 nM | EC50 [2, 7]: 840 nM

Molecule: N=C(N)NCCC[C@H](NC(=O)[C@@H](Cc1ccc2ccccc2c1)NC(=O)CN1CCN(CC(=O)O)CCN(CC(=O)O)CCN(CC(=O)O)CC1)C(=O)N[C@@H](Cc1c[nH]c2ccccc12)C(=O)N[C@@H](CO)C(=O)N[C@@H](Cc1c[nH]cn1)C(=O)N[C@H](CCCNC(=N)N)C(=O)N[C@@H](Cc1c[nH]c2ccccc12)C(=O)N[C@@H](Cc1ccc(C(=O)c2ccccc2)cc1)C(=O)N1CSC[C@H]1C(N)=O [Lu-BRU-3072]
remaining at 1 h, 0.3 mg/mL ([1]; liver homogenate at 37° C. for 60 min, mean ± SD, n = 3, read-out: % remaining (% of parent remaining)): 98.5 ± 0.2% | Stabilized relative to parent? ([1]; liver homogenate at 37° C. for 60 min, compared to Lu-BRU-2813 or unstabilized peptide): Yes

Molecule: N=C(N)NCCC[C@H](NC(=O)[C@@H](Cc1ccc2ccccc2c1)NC(=O)CN1CCN(CC(=O)O)CCN(CC(=O)O)CCN(CC(=O)O)CC1)C(=O)N[C@@H](Cc1c[nH]c2ccccc12)C(=O)N[C@@H](CO)C(=O)N[C@@H](Cc1c[nH]cn1)C(=O)N[C@H](CCCNC(=N)N)C(=O)N[C@@H](Cc1c[nH]c2ccccc12)C(=O)N[C@@H](Cc1ccc(C(=O)c2ccccc2)cc1)C(=O)N1C[C@H](N)C[C@H]1C(=O)NNC(N)=O [Lu-BRU-2995]
remaining at 1 h, 0.3 mg/mL [1]: 98.7 ± 0.1%

Molecule: N=C(N)NCCC[C@H](NC(=O)[C@@H](Cc1ccc2ccccc2c1)NC(=O)CN1CCN(CC(=O)O)CCN(CC(=O)O)CCN(CC(=O)O)CC1)C(=O)N[C@@H](Cc1c[nH]c2ccccc12)C(=O)N[C@@H](CO)C(=O)N[C@@H](Cc1c[nH]cn1)C(=O)N[C@H](CCCNC(=N)N)C(=O)N[C@@H](Cc1c[nH]c2ccccc12)C(=O)N[C@@H](Cc1ccc(C(=O)c2ccccc2)cc1)C(=O)N1CCCC[C@H]1C(=O)NNC(N)=O [Lu-BRU-2996]
remaining at 1 h, 0.3 mg/mL [1]: 71.7 ± 2.9%

Molecule: N=C(N)NCCC[C@H](NC(=O)[C@@H](Cc1ccc2ccccc2c1)NC(=O)CN1CCN(CC(=O)O)CCN(CC(=O)O)CCN(CC(=O)O)CC1)C(=O)N[C@@H](Cc1c[nH]c2ccccc12)C(=O)N[C@@H](CO)C(=O)N[C@@H](Cc1c[nH]cn1)C(=O)N[C@H](CCCNC(=N)N)C(=O)N[C@@H](Cc1c[nH]c2ccccc12)C(=O)N[C@@H](Cc1ccc(C(=O)c2ccccc2)cc1)C(=O)N1CSC[C@H]1C(N)=O [BRU-3072]
metabolism in liver homogenate ([1]; 37° C. for 60 min, Lu complexes of DO3A10CM peptides, unlabeled BRU-2477 derivatives): no metabolism was observed | times more potent than the comparator analog ([2]; BRU-2441 vs BRU-2439, BRU-2666 vs Sar1 analog, BRU-3072 vs Pro9 analog): ~2.5

Molecule: N=C(N)NCCC[C@@H](NC(=O)[C@H](Cc1c[nH]cn1)NC(=O)[C@H](CO)NC(=O)[C@H](Cc1c[nH]c2ccccc12)NC(=O)[C@H](Cc1c[nH]cn1)NC(=O)[C@@H]1CCC(=O)N1)C(=O)N[C@@H](Cc1c[nH]c2ccccc12)C(=O)N[C@@H](Cc1ccc(O)cc1)C(=O)N1C[C@@H](N)C[C@H]1C(=O)NNC(N)=O [BRU-3123] (HELM PEPTIDE1{[Glp].H.W.S.H.[dR].W.Y.[N[C@H]1C[C@@H](C(=O)[*:2])N([*:1])C1].[O=C(NN[*:1])[*:2]].[am]}$$$$V2.0)
remaining at 1 h, 0.3 mg/mL [1]: 100% | EC50 [2, 7]: 990 nM

Molecule: N=C(N)NCCC[C@H](NC(=O)[C@@H](Cc1ccc2ccccc2c1)NC(=O)CN1CCN(CC(=O)O)CCN(CC(=O)O)CCN(CC(=O)O)CC1)C(=O)N[C@@H](Cc1c[nH]c2ccccc12)C(=O)N[C@@H](CO)C(=O)N[C@@H](Cc1c[nH]cn1)C(=O)N[C@H](CCCNC(=N)N)C(=O)N[C@@H](Cc1c[nH]c2ccccc12)C(=O)N[C@@H](Cc1ccc(C(=O)c2ccccc2)cc1)CN1CCC[C@H]1C(=O)NNC(N)=O [Lu-BRU-3081] ({DOTA}-[d2Nal]RWSH[dR]W-X1)
remaining at 1 h, 0.3 mg/mL [1]: 100%

Molecule: N=C(N)NCCC[C@H](NC(=O)[C@@H](Cc1ccc2ccccc2c1)NC(=O)CN1CCN(CC(=O)O)CCN(CC(=O)O)CCN(CC(=O)O)CC1)C(=O)N[C@@H](Cc1c[nH]c2ccccc12)C(=O)N[C@@H](CO)C(=O)N[C@@H](Cc1c[nH]cn1)C(=O)N[C@H](CCCNC(=N)N)C(=O)N[C@@H](Cc1c[nH]c2ccccc12)C(=O)N[C@@H](Cc1ccc(C(=O)c2ccccc2)cc1)C(=O)N1C[C@H](F)C[C@H]1C(=O)NNC(N)=O [Lu-BRU-2994]
remaining at 1 h, 0.3 mg/mL [1]: 45.7 ± 1.2% | EC50 ([2]; Table 22, unit inferred): 600 nM

remaining at 1 h, 0.3 mg/mL [1]: 38.7 ± 5.9%
Molecule: N=C(N)NCCC[C@@H](NC(=O)[C@H](Cc1c[nH]cn1)NC(=O)[C@H](CO)NC(=O)[C@H](Cc1c[nH]c2ccccc12)NC(=O)[C@H](Cc1c[nH]cn1)NC(=O)[C@@H]1CCC(=O)N1)C(=O)N[C@@H](Cc1c[nH]c2ccccc12)C(=O)N[C@@H](Cc1ccc(O)cc1)C(=O)N1CSC[C@H]1C(=O)NNC(N)=O [BRU-3124] (HELM PEPTIDE1{[Glp].H.W.S.H.[dR].W.Y.[O=C([C@@H]1CSCN1[*:1])[*:2]].[O=C(NN[*:1])[*:2]].[am]}$$$$V2.0)

Molecule: N=C(N)NCCC[C@@H](NC(=O)[C@H](Cc1c[nH]cn1)NC(=O)[C@H](CO)NC(=O)[C@H](Cc1c[nH]c2ccccc12)NC(=O)[C@H](Cc1c[nH]cn1)NC(=O)[C@@H]1CCC(=O)N1)C(=O)N[C@@H](Cc1c[nH]c2ccccc12)C(=O)N[C@@H](Cc1ccc(O)cc1)CN1CCC[C@H]1C(=O)NNC(N)=O [BRU-3122]
remaining at 1 h, 0.3 mg/mL [1]: 100% | EC50 [2, 7]: 3130 nM

Molecule: N=C(N)NCCC[C@H](NC(=O)[C@@H](Cc1ccc2ccccc2c1)NC(=O)CN1CCN(CC(=O)O)CCN(CC(=O)O)CCN(CC(=O)O)CC1)C(=O)N[C@@H](Cc1c[nH]c2ccccc12)C(=O)N[C@@H](CO)C(=O)N[C@@H](Cc1c[nH]cn1)C(=O)N[C@H](CCCNC(=N)N)C(=O)N[C@@H](Cc1c[nH]c2ccccc12)C(=O)N[C@@H](Cc1ccc(C(=O)c2ccccc2)cc1)C(=O)N1CC[C@H]1C(=O)NNC(N)=O [Lu-BRU-2993]
remaining at 1 h, 0.3 mg/mL [1]: 14.9 ± 13.2%

EC50 [3]: 260 nM | EC50 [4]: 260 nM | EC50 [5]: 260 nM
Molecule: XHWSHXWXPX (N-terminal DO3A10CM; Damfe4 at 1; Darg at 6; Bpa4 at 8; azaGly-NH2 at 10) [BRU-2757]

EC50 [3]: 440 nM | EC50 [6]: 650 nM | EC50 [5]: 440 nM
B1: BRU-2696 (peptide)
peptide: XXHWSHXWXPX
modifications: as printed: DO3A10CM-Gly-Abz4-Sar-His-Trp-Ser-His-Darg-Trp-Bpa4-Pro-azaGly-NH2 (Gly-Abz4 is the linker)

EC50 [3]: 2000 nM | EC50 [4]: 2000 nM
Molecule: XHWSHXWXPX (DO3A10CM on N-terminus; AA1 Dphe; AA6 Darg; AA8 Bpa4; AA10 azaGly-NH2) [BRU-2894]

EC50 [3]: 620 nM | EC50 [4]: 620 nM | EC50 [6]: 650 nM
B2: BRU-2766 (peptide)
peptide: DO3A10CM-G[d1Nal]HWSH[dR]W[Bpa4]P[azaGly]-NH2
modifications: reading uncertain; also: printed as DO3A10CM-Gly-Dnal1-His-Trp-Ser-His-Darg-Trp-Bpa4-Pro-azaGly-NH2

EC50 [3]: 450 nM | EC50 [4]: 450 nM | EC50 [5]: 450 nM
B3: BRU-2797 (peptide)
peptide: DO3A10CM-G[Hpgly]HWSH[dR]W[Bpa]P[azaGly]-NH2
modifications: reading uncertain; also: printed as DO3A10CM-Gly-Hpgly-His-Trp-Ser-His-Darg-Trp-Bpa4-Pro-azaGly-NH2

EC50 [3]: 980 nM | EC50 [4]: 980 nM
Molecule: XHWSHXWXPX (DO3A10CM on N-terminus; AA1 Dafe4; AA6 Darg; AA8 Bpa4; AA10 azaGly-NH2) [BRU-2810]

EC50 [3]: 1420 nM | EC50 [4]: 1420 nM
Molecule: XHWSHXWXPX (DO3A10CM on N-terminus; AA1 Meala; AA6 Darg; AA8 Bpa4; AA10 azaGly-NH2) [BRU-2736]

EC50 [3]: 2990 nM | EC50 [4]: 2990 nM
Molecule: {DO3A10CM″}-[Sar][His(1-Me)]WSH[dR]W[Bpa]P[azaGly]-NH2 [BRU-2741]

EC50 [3]: 280 nM | EC50 [4]: 280 nM
B4: BRU-2756 (peptide)
peptide: DO3A10CM-[Sar][Amfe4]WSH[dR]W[Bpa4]P[azaGly]-NH2
modifications: reading uncertain; also: printed as DO3A10CM-Sar-Amfe4-Trp-Ser-His-Darg-Trp-Bpa4-Pro-azaGly-NH2
